Data: patent US20260193335A1 (ZOETIS SERVICES, published 2026)
Numbering of substitutions follows the chain as printed. Numbers in names are those of the source.

B1: mAb6 anti-TGFβ antibody ZTS-310, wildtype (antibody, IgG1a)
heavy: QVLLVQSGAEVRRPGASVKIFCKASGYSFTSSWMNWLRQAPAQGFEWMGQIYPGDGDTNYNGKFKGRLTLTADTSTDTAYMELSSLRSADTAVYYCARHYDGSTDYWGHGTIVTVSSASTTAPSVFPLAPSCGTTSGATVALACLVLGYFPEPVTVSWNSGALTSGVHTFPAVLQASGLYSLSSMVTVPSSRWLSDTFTCNVAHPPSNTKVDKTVRKTDHPPGPKPCDCPKCPPPEMLGGPSIFIFPPKPKDTLSISRTPEVTCLVVDLGPDDSDVQITWFVDNTQVYTAKTSPREEQFNSTYRVVSVLPILHQDWLKGKEFKCKVNSKSLPSPIERTISKAKGQPHEPQVYVLPPAQEELSRNKVSVTCLIKSFHPPDIAVEWEITGQPEPENNYRTTPPQLDSDGTYFVYSKLSVDRSHWQRGNTYTCSVSHEALHSHHTQKSLTQSPGK
light: AITMTQSPGSLAGSPGQQVTMNCRASENIYSNLAWYQQKPGQHPKLLIYAATNLADGVPDRFSGSGSGTDFTLTISNLQAEDVASYYCQHFWGTPYTFGGGTK
notes: 'Feline IgG1a subclass B was used'; The listing names the entries heavy chain and light chain; also called mAb6 ID No. 1; ZTS-310 WT
B2: mAb4 (felinized anti-IL31 antibody ZTS-5864) S428Y and S434P, feline IgG1a (antibody)
heavy: DVQLVESGGDLVKPGGSLRLTCVASGFTFSDYAMSWVRQAPGKGLQWVAGIDSVGSGTSYADSVKGRFTISRDNAKNTLYLQMNSLKTEDTATYYCASGFPGSFEHWGQGTLVTVSSASTTAPSVFPLAPSCGTTSGATVALACLVLGYFPEPVTVSWNSGALTSGVHTFPAVLQASGLYSLSSMVTVPSSRWLSDTFTCNVAHPPSNTKVDKTVRKTDHPPGPKPCDCPKCPPPEMLGGPSIFIFPPKPKDTLSISRTPEVTCLVVDLGPDDSDVQITWFVDNTQVYTAKTSPREEQFNSTYRVVSVLPILHQDWLKGKEFKCKVNSKSLPSPIERTISKAKGQPHEPQVYVLPPAQEELSRNKVSVTCLIKSFHPPDIAVEWEITGQPEPENNYRTTPPQLDSDGTYFVYSKLSVDRSHWQRGNTYTCSVYHEALHPHHTQKSLTQSPGK
VL: QSVLTQPSSVSGTLGQRITISCTGSSSNIGSGYVGWYQQVPGMGPKTVIYYNSDRPSGVPDRFSGSKSGSSGTLTITGLQAEDEADYYCSVYDRTFNAVFGGGT
notes: also called mAb4 ID No. 30
B3: mAb4 (felinized anti-IL31 antibody ZTS-5864) S428M and S434P, feline IgG1a, ID No. 35 (antibody)
heavy: B2 heavy with Y433M
VL: B2 VL
notes: Same printed mutations as ID No. 50; also called mAb4 ID No. 35
B4: mAb4 (felinized anti-IL31 antibody ZTS-5864) S428Y and S434H, feline IgG1a (antibody)
heavy: B2 heavy with P439H
VL: B2 VL
notes: also called mAb4 ID No. 27
B5: mAb4 (felinized anti-IL31 antibody ZTS-5864) S428M and S434L, feline IgG1a, ID No. 34 (antibody)
heavy: B2 heavy with Y433M, P439L
VL: B2 VL
notes: Same printed mutations as ID No. 49; also called mAb4 ID No. 34
B6: mAb4 (felinized anti-IL31 antibody ZTS-5864) S428Y and S434L, feline IgG1a (antibody)
heavy: B2 heavy with P439L
VL: B2 VL
notes: also called mAb4 ID No. 29
B7: mAb4 (felinized anti-IL31 antibody ZTS-5864) S428Y and S434F, feline IgG1a (antibody)
heavy: B2 heavy with P439F
VL: B2 VL
notes: also called mAb4 ID No. 28
B8: mAb4 (felinized anti-IL31 antibody ZTS-5864) S428M and S434H, feline IgG1a (antibody)
heavy: B2 heavy with Y433M, P439H
VL: B2 VL
notes: also called mAb4 ID No. 32
B9: mAb4 (felinized anti-IL31 antibody ZTS-5864) S428V, feline IgG1a (antibody)
heavy: B2 heavy with Y433V, P439S
VL: B2 VL
notes: also called mAb4 ID No. 18
B10: mAb4 (felinized anti-IL31 antibody ZTS-5864) S428Y, feline IgG1a (antibody)
heavy: B2 heavy with P439S
VL: B2 VL
notes: also called mAb4 ID No. 20
B11: mAb5 (felinized anti-IL31 antibody) S428L, feline IgG1a (antibody, part only; not given: variable domains of mAb5, not shown: another chain or arm of the molecule; small tags and cut ends)
constant: ASTTAPSVFPLAPSCGTTSGATVALACLVLGYFPEPVTVSWNSGALTSGVHTFPAVLQASGLYSLSSMVTVPSSRWLSDTFTCNVAHPPSNTKVDKTVRKTDHPPGPKPCDCPKCPPPEMLGGPSIFIFPPKPKDTLSISRTPEVTCLVVDLGPDDSDVQITWFVDNTQVYTAKTSPREEQFNSTYRVVSVLPILHQDWLKGKEFKCKVNSKSLPSPIERTISKAKGQPHEPQVYVLPPAQEELSRNKVSVTCLIKSFHPPDIAVEWEITGQPEPENNYRTTPPQLDSDGTYFVYSKLSVDRSHWQRGNTYTCSVLHEALHSHHTQKSLTQSPGK
B12: mAb5 (felinized anti-IL31 antibody) S428M and S434P, feline IgG1a (antibody, part only; not given: variable domains of mAb5, not shown: another chain or arm of the molecule; small tags and cut ends)
constant: B11 constant with L316M, S322P
B13: mAb5 (felinized anti-IL31 antibody) S428M and S434L, feline IgG1a (antibody, part only; not given: variable domains of mAb5, not shown: another chain or arm of the molecule; small tags and cut ends)
constant: B11 constant with L316M, S322L
B14: mAb4 (felinized anti-IL31 antibody ZTS-5864) S428E, feline IgG1a (antibody, part only; not given: light constant region, not shown: another chain or arm of the molecule)
heavy: B2 heavy with Y433E, P439S
VL: B2 VL
B15: mAb4 (felinized anti-IL31 antibody ZTS-5864) S428F, feline IgG1a (antibody, part only; not given: light constant region, not shown: another chain or arm of the molecule)
heavy: B2 heavy with Y433F, P439S
VL: B2 VL
B16: mAb4 (felinized anti-IL31 antibody ZTS-5864) S428N, feline IgG1a (antibody, part only; not given: light constant region, not shown: another chain or arm of the molecule)
heavy: B2 heavy with Y433N, P439S
VL: B2 VL
B17: mAb4 (felinized anti-IL31 antibody ZTS-5864) S428H, feline IgG1a (antibody, part only; not given: light constant region, not shown: another chain or arm of the molecule)
heavy: B2 heavy with Y433H, P439S
VL: B2 VL
B18: mAb4 (felinized anti-IL31 antibody ZTS-5864) S428K, feline IgG1a (antibody, part only; not given: light constant region, not shown: another chain or arm of the molecule)
heavy: B2 heavy with Y433K, P439S
VL: B2 VL
B19: mAb4 (felinized anti-IL31 antibody ZTS-5864) S428I, feline IgG1a (antibody, part only; not given: light constant region, not shown: another chain or arm of the molecule)
heavy: B2 heavy with Y433I, P439S
VL: B2 VL
B20: mAb4 (felinized anti-IL31 antibody ZTS-5864) S428M, feline IgG1a (antibody, part only; not given: light constant region, not shown: another chain or arm of the molecule)
heavy: B2 heavy with Y433M, P439S
VL: B2 VL

These binders were tested against T1, Feline FcRn (complex of FcRn-α subunit and β-microglobulin, C-terminal His tag) (feline, UniProt A0ABI7ZNY9 23-296; Q5MGS7 21-118) (assay: SPR Biacore, FcRn on sensor, pH 6; pH 6).
T1 construct: treated here as one molecule
Method: As discussed in the above Example section, Feline FcRn was isolated, prepared and mutant Fc IgGs were assayed against feline FcRn according to Strietzelg et. al. Standard RACE PCR was used to amplify feline FcRn-α subunit and β-microglobulin. FcRn-α subunit and β-microglobulin were co-transfected into HEK 293 cells and the FcRn complex was purified by IMAC affinity purification via the c-terminal His tag. KD's were measured by Biacore 3000 or Biacore T200 (GE Healthcare, Pittsburgh, PA, USA) using a CM5 sensor chip.
(§1) FcRn was captured on the surface of the sensor using a modified SA capture method. 10 mM MES; 150 mM NaCl; 0.005% Tween20; 0.5 mg/mL BSA; pH6 was used as capture, method running buffer and titrations. 1×HBS-P, 0.5 mg/mL BSA; pH7.4 was also used for method running buffer and titrations. Fc mutant IgGs were flowed over receptor surfaces and affinity was determined using T200 evaluation software or Biacore Insight Evaluation software. Blank runs containing buffer only were subtracted out from all runs. Flow cells were regenerated using 50 mM Tris pH8 or pH9. Runs were performed at 15° C.
Work on B1 yielded a Kd of 147 nM.

Each binder was assayed against T1, Feline FcRn (complex of FcRn-α subunit …) (assay: SPR Biacore, biotin-FcRn on SA chip, pH 6).
Method: Feline FcRn was isolated, prepared and mutant Fc IgGs were assayed against feline FcRn according to Strietzel et. al., discussed above. Standard PCR was used to amplify feline FcRn-α subunit and β-microglobulin. FcRn-α subunit and β-microglobulin were co-transfected into HEK 293 cells and the FcRn complex was purified by IMAC affinity purification via the c-terminal His tag. FcRn complex was biotin labeled through BirA enzymatic biotinylatoin reaction. KD's were measured by Biacore T200 (GE Healthcare, Pittsburgh, PA, USA) or Biacore 8K (Cytiva, Marlborough, MA, USA) using a SA sensor chip.
as §1
B2 gave a Kd of 40.6 nM. B3 was tested, and the Kd was 42 nM. Binder B4 has a Kd of 18.8 nM. B5 gave a Kd of 28.3 nM. B6 showed a Kd of 44 nM. B7 gave a Kd of 18.9 nM. Work on B8 yielded a Kd of 17.2 nM. Binder B9 has a Kd of 63.9 nM. B10 showed a Kd of 63.4 nM.

Each binder was assayed against Feline FcRn (complex of FcRn-α subunit and β-microglobulin, C-terminal His tag) (feline) (assay: SPR Biacore, biotin-FcRn on SA chip, pH 6).
Feline FcRn (complex of FcRn-α subunit and β-microglobulin, C-terminal His tag) (feline), sequence (chain, as listed by the source, chain 1 of 2): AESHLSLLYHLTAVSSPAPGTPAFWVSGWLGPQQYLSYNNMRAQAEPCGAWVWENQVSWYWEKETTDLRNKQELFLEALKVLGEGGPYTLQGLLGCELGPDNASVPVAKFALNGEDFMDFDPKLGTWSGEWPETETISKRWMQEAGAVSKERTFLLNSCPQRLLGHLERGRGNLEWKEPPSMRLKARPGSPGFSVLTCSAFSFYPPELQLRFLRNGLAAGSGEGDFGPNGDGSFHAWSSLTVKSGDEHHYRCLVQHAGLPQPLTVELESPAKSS
Feline FcRn (complex of FcRn-α subunit and β-microglobulin, C-terminal His tag) (feline), sequence (Q5MGS7 21-118, chain 2 of 2): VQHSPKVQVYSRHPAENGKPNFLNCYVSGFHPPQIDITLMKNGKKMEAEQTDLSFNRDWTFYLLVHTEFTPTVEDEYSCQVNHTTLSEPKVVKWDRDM
For B11, the Kd was 8.65 nM. Work on B12 yielded a Kd of 33.2 nM. B13 showed a Kd of 18.6 nM. For B14, the Kd was 37.9 nM. For B15, the Kd was 29.7 nM. With B16 the Kd was 49 nM. B17 gave a Kd of 25.5 nM. B18 gave a Kd of 21.4 nM. In the case of B19, the Kd is reported as 16.7 nM. Work on B20 yielded a Kd of 18.8 nM.
